Target: HLA-Cw4 on LCL 721.221-Cw4 cells (human)
Assay: cell-based or functional assay

**Q.** For “KIR2DL1 expressed on YTS-2DL1 NK cells (from UniProt P43626 22-348)”, which killing of LCL 721.221-Cw4 cells by YTS-2DL1 in the absence of any anti-KIR mAb is on record?
**A.** 5%

From patent US20090075340A1
